In patent US20060018915A1 (EPIMUNNE, published 2006):

Key:
Assay in all cases: HLA binding, candidate-epitope table; assay not described
[1] = biological target: T1, A*6801 (human, UniProt P61769 21-119, limits assumed)
T1 construct: MHC class I molecule; form in the assay not described; also called HLA-A*6801

[2] = biological target: T2, A*3101 (human, UniProt P61769 21-119, limits assumed)
T2 construct: MHC class I molecule; form in the assay not described; also called HLA-A*3101

[3] = biological target: T3, A*0301 (human, UniProt P61769 21-119)
T3 construct: MHC class I molecule; form in the assay not described; also called HLA-A*0301

[4] = biological target: T4, A*0101 (human, UniProt P61769 21-119)
T4 construct: MHC class I molecule; form in the assay not described; also called HLA-A*0101

IC50 [1] [nM] | IC50 [2] [nM] | IC50 [3] [nM] | IC50 [4] [nM] | Binder
4 | 13 | 100 | – | VVFGILIKR (also called 1095.51) [Her2/neu.669]
– | – | – | 68 | GSDCTTIHYNY (also called 52.0136) [p53.226]
